The data set relates to Escherichia coli TOP10. The data set is described as follows: shrunken log2 fold change of peptide-encoding DNA abundance (4.5 h post-induction vs induction); higher = less antimicrobial activity (less host growth inhibition). The note with it: time post-induction: 4.5 h; library: site-saturation at positions 5, 18, 19, 20.
Turning to RRIRFRPPRLPRPRPRPANAPRP, the “shrunken log2 fold change” value is -0.0885.

In the case of RRIRVRPPRLPRPRPRPGLSPRP, the “shrunken log2 fold change” value amounted to 0.32.

For the sequence RRIRMRPPRLPRPRPRPLQWPRP, the “shrunken log2 fold change” value was 0.104.

With RRIRNRPPRLPRPRPRPNPQPRP, the “shrunken log2 fold change” value stood at 0.166.

As for RRIRHRPPRLPRPRPRPEEYPRP, the “shrunken log2 fold change” value is -0.289.

As to RRIRGRPPRLPRPRPRPLYPPRP, the “shrunken log2 fold change” value turned out to be 0.162.

In the case of RRIRWRPPRLPRPRPRPNNMPRP, the “shrunken log2 fold change” value was -0.345.

With RRIRSRPPRLPRPRPRPIENPRP, the “shrunken log2 fold change” value is -0.00961.

For RRIRARPPRLPRPRPRPIIKPRP, the “shrunken log2 fold change” value is -0.09.

As for RRIRKRPPRLPRPRPRPEQDPRP, the “shrunken log2 fold change” value is 0.0646.

For the sequence RRIRRRPPRLPRPRPRPGWWPRP, the “shrunken log2 fold change” value is 0.478.

In the case of RRIRQRPPRLPRPRPRPWNIPRP, the “shrunken log2 fold change” value is -0.0185.

For RRIRYRPPRLPRPRPRPSYVPRP, the “shrunken log2 fold change” value is -1.29.

Regarding RRIRIRPPRLPRPRPRPRYWPRP, the “shrunken log2 fold change” value was determined as 0.0433.

As to RRIRYRPPRLPRPRPRPMVIPRP, the “shrunken log2 fold change” value is -0.0231.

On to RRIRNRPPRLPRPRPRPTDVPRP, for which the “shrunken log2 fold change” value was -0.0793.

In the case of RRIRIRPPRLPRPRPRPPPPPRP, the “shrunken log2 fold change” value stood at 0.714.

Take RRIRQRPPRLPRPRPRPQTVPRP: the “shrunken log2 fold change” value was -0.0925.

For the sequence RRIRYRPPRLPRPRPRPIFMPRP, the “shrunken log2 fold change” value was -0.269.

As for RRIRIRPPRLPRPRPRPWDLPRP, the “shrunken log2 fold change” value is -0.119.

As for RRIRDRPPRLPRPRPRPVARPRP, the “shrunken log2 fold change” value came out at 0.56.

On to RRIRDRPPRLPRPRPRPFDFPRP, for which the “shrunken log2 fold change” value was determined as 0.122.

Regarding RRIRVRPPRLPRPRPRPYHIPRP, the “shrunken log2 fold change” value is -1.2.

As to RRIRRRPPRLPRPRPRPSGDPRP, the “shrunken log2 fold change” value was 0.233.

In the case of RRIRMRPPRLPRPRPRPIADPRP, the “shrunken log2 fold change” value was -0.00229.

As to RRIRDRPPRLPRPRPRPFNMPRP, the “shrunken log2 fold change” value was -0.186.

On to RRIRCRPPRLPRPRPRPSTSPRP, for which the “shrunken log2 fold change” value was -0.282.

On to RRIRQRPPRLPRPRPRPPLIPRP, for which the “shrunken log2 fold change” value was 0.0445.

For RRIRMRPPRLPRPRPRPQDTPRP, the “shrunken log2 fold change” value is -0.0435.

As to RRIRERPPRLPRPRPRPICVPRP, the “shrunken log2 fold change” value was -0.301.

Take RRIRWRPPRLPRPRPRPVHVPRP: the “shrunken log2 fold change” value came to 0.109.

As to RRIRHRPPRLPRPRPRPDTNPRP, the “shrunken log2 fold change” value came to 0.102.

RRIRCRPPRLPRPRPRPYQDPRP: the “shrunken log2 fold change” value was -0.725.

For the sequence RRIRSRPPRLPRPRPRPTVHPRP, the “shrunken log2 fold change” value is -0.0989.

RRIRWRPPRLPRPRPRPAKEPRP: the “shrunken log2 fold change” value was -0.01.

For RRIRWRPPRLPRPRPRPAEVPRP, the “shrunken log2 fold change” value amounted to 0.204.

Regarding RRIRSRPPRLPRPRPRPAEFPRP, the “shrunken log2 fold change” value came out at 0.00621.

As to RRIRGRPPRLPRPRPRPLEMPRP, the “shrunken log2 fold change” value amounted to 0.998.

As for RRIRKRPPRLPRPRPRPVNNPRP, the “shrunken log2 fold change” value was -0.241.

With RRIRKRPPRLPRPRPRPEQIPRP, the “shrunken log2 fold change” value stood at 0.0375.

As for RRIRNRPPRLPRPRPRPLGYPRP, the “shrunken log2 fold change” value is -0.165.

For the sequence RRIRIRPPRLPRPRPRPSMTPRP, the “shrunken log2 fold change” value was -0.43.

Turning to RRIRKRPPRLPRPRPRPQTCPRP, the “shrunken log2 fold change” value was -0.132.

For RRIRARPPRLPRPRPRPKIYPRP, the “shrunken log2 fold change” value is -0.161.

For the sequence RRIRMRPPRLPRPRPRPHMGPRP, the “shrunken log2 fold change” value was -0.0941.

In the case of RRIRWRPPRLPRPRPRPHVNPRP, the “shrunken log2 fold change” value was -0.315.

With RRIRWRPPRLPRPRPRPYGVPRP, the “shrunken log2 fold change” value was 0.00576.

Take RRIRMRPPRLPRPRPRPMIYPRP: the “shrunken log2 fold change” value was -0.178.

For the sequence RRIRDRPPRLPRPRPRPFIAPRP, the “shrunken log2 fold change” value is -0.237.

Regarding RRIRFRPPRLPRPRPRPEPFPRP, the “shrunken log2 fold change” value is 0.108.

Regarding RRIRWRPPRLPRPRPRPIWDPRP, the “shrunken log2 fold change” value turned out to be 0.214.

RRIRKRPPRLPRPRPRPDDFPRP: the “shrunken log2 fold change” value was -0.00262.

Consider RRIRFRPPRLPRPRPRPHCAPRP, for which the “shrunken log2 fold change” value is -0.17.

For RRIRCRPPRLPRPRPRPAHTPRP, the “shrunken log2 fold change” value is -0.0293.

For the sequence RRIRKRPPRLPRPRPRPCWQPRP, the “shrunken log2 fold change” value is 0.154.

For RRIRPRPPRLPRPRPRPFGSPRP, the “shrunken log2 fold change” value was determined as 0.0959.

Regarding RRIRPRPPRLPRPRPRPDCHPRP, the “shrunken log2 fold change” value was -0.204.

On to RRIRARPPRLPRPRPRPMWGPRP, for which the “shrunken log2 fold change” value was found to be 0.115.

RRIRRRPPRLPRPRPRPTPMPRP: the “shrunken log2 fold change” value stood at 1.08.

RRIRIRPPRLPRPRPRPIFQPRP: the “shrunken log2 fold change” value was -0.378.

On to RRIRQRPPRLPRPRPRPQCQPRP, for which the “shrunken log2 fold change” value worked out at 0.05.

As for RRIRMRPPRLPRPRPRPGMRPRP, the “shrunken log2 fold change” value stood at 1.54.

Consider RRIRARPPRLPRPRPRPPDTPRP, for which the “shrunken log2 fold change” value is 0.764.

On to RRIRNRPPRLPRPRPRPNFGPRP, for which the “shrunken log2 fold change” value is -0.0224.

Regarding RRIRSRPPRLPRPRPRPHMWPRP, the “shrunken log2 fold change” value amounted to 0.202.

Turning to RRIRCRPPRLPRPRPRPVHVPRP, the “shrunken log2 fold change” value was -0.496.

For the sequence RRIRCRPPRLPRPRPRPLRYPRP, the “shrunken log2 fold change” value amounted to 0.246.

Turning to RRIRCRPPRLPRPRPRPTFDPRP, the “shrunken log2 fold change” value was -0.164.

RRIRKRPPRLPRPRPRPHNLPRP: the “shrunken log2 fold change” value came to 0.0314.

For RRIRMRPPRLPRPRPRPISEPRP, the “shrunken log2 fold change” value is 0.151.

Regarding RRIRRRPPRLPRPRPRPKGCPRP, the “shrunken log2 fold change” value was determined as 0.0288.

As to RRIRRRPPRLPRPRPRPDEIPRP, the “shrunken log2 fold change” value was 0.116.

For the sequence RRIRWRPPRLPRPRPRPLDNPRP, the “shrunken log2 fold change” value was -0.23.

As to RRIRKRPPRLPRPRPRPSLPPRP, the “shrunken log2 fold change” value is -0.0153.

Consider RRIRWRPPRLPRPRPRPTHWPRP, for which the “shrunken log2 fold change” value amounted to 0.322.

RRIRGRPPRLPRPRPRPCHFPRP: the “shrunken log2 fold change” value is 0.0576.

With RRIRDRPPRLPRPRPRPNCHPRP, the “shrunken log2 fold change” value was -0.23.

For RRIRIRPPRLPRPRPRPVHEPRP, the “shrunken log2 fold change” value was -0.139.

As to RRIRVRPPRLPRPRPRPNTHPRP, the “shrunken log2 fold change” value is -0.457.

On to RRIRDRPPRLPRPRPRPFYQPRP, for which the “shrunken log2 fold change” value is -0.276.

As for RRIRYRPPRLPRPRPRPDGWPRP, the “shrunken log2 fold change” value came out at 0.212.

For the sequence RRIRGRPPRLPRPRPRPNAGPRP, the “shrunken log2 fold change” value turned out to be 0.552.

As for RRIRSRPPRLPRPRPRPEYYPRP, the “shrunken log2 fold change” value stood at 0.0495.

Consider RRIRCRPPRLPRPRPRPGVPPRP, for which the “shrunken log2 fold change” value is -0.3.

Take RRIRGRPPRLPRPRPRPFHSPRP: the “shrunken log2 fold change” value was -0.155.

Consider RRIRFRPPRLPRPRPRPHRNPRP, for which the “shrunken log2 fold change” value is -0.257.

Take RRIRMRPPRLPRPRPRPMKFPRP: the “shrunken log2 fold change” value came to 0.0534.

On to RRIRARPPRLPRPRPRPATSPRP, for which the “shrunken log2 fold change” value came out at 0.461.

With RRIRCRPPRLPRPRPRPCINPRP, the “shrunken log2 fold change” value was -0.0741.

Consider RRIRIRPPRLPRPRPRPMGGPRP, for which the “shrunken log2 fold change” value amounted to 0.38.

Consider RRIRCRPPRLPRPRPRPDPCPRP, for which the “shrunken log2 fold change” value is -0.039.

These data come from the supplement of paper PMC9112550, “Optimization of the antimicrobial peptide Bac7 by deep mutational scanning” (BMC Biology, 2022).
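Also: peptides expressed intracellularly from a pBAD plasmid library in pooled LB shake-flask culture, induced with 0.3% L-arabinose, DNA abundance read by NGS, three biological replicates, DESeq2 with apeglm shrinkage.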
